According to publication PMC4019985, “Mitochondrial thiol oxidase Erv1: both shuttle cysteine residues are required for its function with distinct roles” (Biochemical Journal, 2014):
“And” between values parts separate entries of the source, which are not always exact repeats. Equal values may be shown once.

B1: Erv1^CXXS (Erv1C33S) (enzyme, S. cerevisiae, UniProt P27882 1-189, looked up)
chain: MKAIDKMTDNPPQEGLSGRKIIYDEDGKPCRSSNTLLDFQYVTGKISNGLKNLSSNGKLAGTGALTGEASELMPGSRTYRKVDPPDVEQLGRSSWTLLHSVAASYPAQPTDQQKGEMKQFLNIFSHIYPCNWCAKDFEKYIRENAPQVESREELGRWMCEAHNKVNKKLRKPKFDCNFWEKRWKDGWDE
notes: Erv1, S. cerevisiae, full length, second shuttle cysteine changed to serine
B6: Erv1^SXXC (Erv1C30S) (enzyme, S. cerevisiae, UniProt P27882 1-189, looked up)
chain: MKAIDKMTDNPPQEGLSGRKIIYDEDGKPSRSCNTLLDFQYVTGKISNGLKNLSSNGKLAGTGALTGEASELMPGSRTYRKVDPPDVEQLGRSSWTLLHSVAASYPAQPTDQQKGEMKQFLNIFSHIYPCNWCAKDFEKYIRENAPQVESREELGRWMCEAHNKVNKKLRKPKFDCNFWEKRWKDGWDE
notes: Erv1, S. cerevisiae, full length, first shuttle cysteine changed to serine; Found as a tetramer (peak 1, yellow) and a dimer (peak 2, black, charge-transfer complex)

Experiments:
Cys33 = Cys33 (UniProt position 33, KPSRSCNTLLD); assay: chemical modification (monobromobimane alkylation) with fluorescence detection; conditions: 25°C; I = 0.15 M (constant ionic strength buffers, 120 mM NaCl); 15 mM acetic acid, 15 mM Mes and 30 mM Tris (pH 3.5–9.0), or 30 mM Aces, 15.6 mM Tris and 15.6 mM ethanolamine (pH 5.7–10). Both contained 120 mM NaCl and 0.1 mM DTPA.; Folded, FAD-bound. The single shuttle cysteine is reduced (free thiol, confirmed by AMS modification), and the active-site cysteines are replaced by serine.
Cys30 = Cys30 (UniProt position 30, EDGKPCRSSNT); assay: as above; conditions: 25°C; I = 0.15 M (constant ionic strength buffers, 120 mM NaCl); 15 mM acetic acid, 15 mM Mes and 30 mM Tris (pH 3.5–9.0), or 30 mM Aces, 15.6 mM Tris and 15.6 mM ethanolamine (pH 5.7–10). Both contained 120 mM NaCl and 0.1 mM DTPA.; Folded, FAD-bound. The single shuttle cysteine is reduced (free thiol, confirmed by AMS modification), and the active-site cysteines are replaced by serine.
[1] = molecular target: the molecule itself; assay: SEC; Superdex 75 in buffer A (50 mM Tris/HCl pH 7.4, 150 mM NaCl); elution position compared with the Erv1 tetramer
[2] = molecular target: the molecule itself; assay: non-reducing SDS/PAGE (intermolecular disulfide-bonded dimer); gel-filtration fractions of the purified proteins on Tris/Tricine SDS/PAGE (16% gel) under reducing and non-reducing conditions
Erv1^SXXC (Erv1C30S) = molecular target: B6; assay: mixed disulfide trapping, non-reducing SDS/PAGE and Western blot; single cysteine mutants pre-treated with 2 mM TCEP, exchanged to buffer A, incubated at 5 uM each for 20 min at room temperature (stopped with 2.5 mM AMS, or 1 mM DTT as reducing control), or 50 uM Mia40 and 5 uM Erv1 over 10 min (stopped with 20 mM IAM); detected with an antibody against Erv1; conditions: both partners purified
Erv1^CXXS (Erv1C33S) = molecular target: B1; assay: as above; conditions: both partners purified
[3] = molecular target: the molecule itself; assay: SEC-MALS; Superdex 200 10/30 in buffer A (150 mM NaCl, 50 mM Tris/HCl pH 7.4), in-line DAWN EOS photometer and Optilab rEX refractor; the two gel-filtration peaks of the protein

In the case of “Mitochondrial FAD-linked sulfhydryl (thiol) oxidase Erv1, triple mutant Erv1^SCSS (C30S/C130S/C133S) (Saccharomyces cerevisiae; C30S;C130S;C133S)”, the pKa (Cys33) is reported as 8.41±0.06.

In the case of “Mitochondrial FAD-linked sulfhydryl (thiol) oxidase Erv1, triple mutant Erv1^CSSS (C33S/C130S/C133S) (Saccharomyces cerevisiae; C33S;C130S;C133S)”, the pKa (Cys30) is reported as 8.39±0.12.

B1 was tested, and the “stoichiometry N” value [1] was 4.

B2: Erv1 (essential for respiration and viability 1), wild-type (enzyme, S. cerevisiae, UniProt P27882 1-189, looked up)
chain: MKAIDKMTDNPPQEGLSGRKIIYDEDGKPCRSCNTLLDFQYVTGKISNGLKNLSSNGKLAGTGALTGEASELMPGSRTYRKVDPPDVEQLGRSSWTLLHSVAASYPAQPTDQQKGEMKQFLNIFSHIYPCNWCAKDFEKYIRENAPQVESREELGRWMCEAHNKVNKKLRKPKFDCNFWEKRWKDGWDE
notes: Erv1, FAD-dependent thiol oxidase of the mitochondrial intermembrane space, S. cerevisiae, full length; Construct in pET24a(+) via Nde1/Xho1; also called WT Erv1; WT
B2: binds [2].

B3: Erv1 redox active-site disulfide double cysteine mutant (C130/C133S) (enzyme, S. cerevisiae, UniProt P27882 1-189, looked up)
chain: MKAIDKMTDNPPQEGLSGRKIIYDEDGKPCRSCNTLLDFQYVTGKISNGLKNLSSNGKLAGTGALTGEASELMPGSRTYRKVDPPDVEQLGRSSWTLLHSVAASYPAQPTDQQKGEMKQFLNIFSHIYPSNWSAKDFEKYIRENAPQVESREELGRWMCEAHNKVNKKLRKPKFDCNFWEKRWKDGWDE
notes: Erv1, S. cerevisiae, full length, both active-site cysteines changed to serine; also called Erv1^CCSS
B3: binds [2].

B4: Mia40^CPS, core domain Mia40c (amino acids 284-403) with the second cysteine of the CPC motif changed to serine (domain or fragment, S. cerevisiae, UniProt P36046 284-403, looked up)
chain: AYNPDTGEINWDCPSLGGMAHGPCGEEFKSAFSCFVYSEAEPKGIDCVEKFQHMQDCFRKYPEHYAEQLKETSDDEEPQDKVKVNTIESAPNVSSAKENAAKKAEQSDVKKEPLNEESKP
notes: Mia40, S. cerevisiae, core domain Mia40c, residues 284-403 (~15 kDa); second cysteine of the CPC motif (Cys298) changed to serine; source: purified (glutathione-Sepharose 4B, thrombin cleavage, Superdex 75)
B4: binds (Erv1^SXXC (Erv1C30S)); binds (Erv1^CXXS (Erv1C33S)).

B5: Mia40^SPC, core domain Mia40c (amino acids 284-403) with the first cysteine of the CPC motif changed to serine (domain or fragment, S. cerevisiae, UniProt P36046 284-403, looked up)
chain: AYNPDTGEINWDSPCLGGMAHGPCGEEFKSAFSCFVYSEAEPKGIDCVEKFQHMQDCFRKYPEHYAEQLKETSDDEEPQDKVKVNTIESAPNVSSAKENAAKKAEQSDVKKEPLNEESKP
notes: Mia40, S. cerevisiae, core domain Mia40c, residues 284-403 (~15 kDa); first cysteine of the CPC motif (Cys296) changed to serine; source: purified (glutathione-Sepharose 4B, thrombin cleavage, Superdex 75)
B5: binds (Erv1^SXXC (Erv1C30S)); binds (Erv1^CXXS (Erv1C33S)).

For B6, the “stoichiometry N” value [3] was 4 and 2.
